Common to all, as to assay: purified protein
Data set [1] deals with NC(=O)C1=CN([C@@H]2O[C@H](COP(=O)(O)OP(=O)(O)OC[C@H]3O[C@@H](n4cnc5c(N)ncnc54)[C@H](O)[C@@H]3O)[C@@H](O)[C@H]2O)C=CC1. To be noted: 50 mM phosphate buffer pH 8.0, 30°C, co-substrate HSP, FAD.
Data set [2] relates to NC(=O)C1=CN([C@@H]2O[C@H](COP(=O)(O)OP(=O)(O)OC[C@H]3O[C@@H](n4cnc5c(N)ncnc54)[C@H](OP(=O)(O)O)[C@@H]3O)[C@@H](O)[C@H]2O)C=CC1. To be noted: 50 mM phosphate buffer pH 8.0, 30°C, co-substrate HSP, FAD.
The next data set relates to O=C(O)CCC(=O)c1ccc(O)nc1. As to conditions: 50 mM phosphate buffer pH 8.0, 30°C, co-substrate NADH, FAD.

Usually Km stands for the substrate concentration at which the rate is half of its maximum. On to “HSP hydroxylase (6-hydroxy-3-succinoylpyridine hydroxylase) (Agrobacterium tumefaciens)”, for which the Km in data set [1] is 100 ± 10 µM; in data set [2] it was 350 ± 40 µM; in the data set on O=C(O)CCC(=O)c1ccc(O)nc1 it was 150 ± 20 µM.

These data come from article PMC4108407, “6-Hydroxy-3-Succinoylpyridine Hydroxylase Catalyzes a Central Step of Nicotine Degradation in Agrobacterium tumefaciens S33” (PLoS ONE, 2014).
